What was measured:
[1] = target: T1, Cynomolgus CD3 epsilon-delta (cynomolgus); experiment: SPR, CD3 captured by anti-His, 25 C
T1 chain: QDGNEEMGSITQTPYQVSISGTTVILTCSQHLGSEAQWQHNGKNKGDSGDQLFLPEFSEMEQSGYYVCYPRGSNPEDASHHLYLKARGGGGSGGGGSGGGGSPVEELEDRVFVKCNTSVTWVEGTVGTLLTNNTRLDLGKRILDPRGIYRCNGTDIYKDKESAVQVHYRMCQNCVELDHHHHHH

[2] = target: T2, Cynomolgus GUCY2C-ECD Cleaved (cynomolgus, UniProt P25092 24-430 (human entry)); experiment: SPR, GUCY2c directly immobilized, 25 C
T2 construct: also called CyGUCY2C
T2 chain: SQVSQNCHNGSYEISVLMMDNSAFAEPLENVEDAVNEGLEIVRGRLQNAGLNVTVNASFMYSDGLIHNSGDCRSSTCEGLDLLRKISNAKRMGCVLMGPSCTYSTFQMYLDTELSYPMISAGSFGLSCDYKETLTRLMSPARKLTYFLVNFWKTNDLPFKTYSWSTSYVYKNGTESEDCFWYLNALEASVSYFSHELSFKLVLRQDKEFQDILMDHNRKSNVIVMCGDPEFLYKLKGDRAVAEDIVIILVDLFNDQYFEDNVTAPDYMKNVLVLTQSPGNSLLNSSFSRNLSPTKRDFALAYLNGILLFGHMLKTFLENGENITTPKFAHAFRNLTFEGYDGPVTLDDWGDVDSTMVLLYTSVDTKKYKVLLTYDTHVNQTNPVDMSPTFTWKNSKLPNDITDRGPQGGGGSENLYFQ
Experimental: Human GUCY2c, cyno GUCY2c and mouse GUCY2c were directly immobilized onto three different flow cells of a CM5 Sensor Chip (BR100530, GE Healthcare) surface using an amine coupling kit (BR100050, GE Healthcare) according to the manufacturer's protocol. […] Flow cell 1 was used as a reference flow cell. […] The dissociation was monitored for 400 seconds and the surface was regenerated with 10 mM Glycine pH 2.1. The running and sample buffer was 10 mM HEPES pH 7.4, 0.15 M NaCl, 3 mM EDTA, 0.05% P-20 (HBS-EP+). The data were double referenced. Binding affinities and rate constants were determined by fitting the resulting sensorgram data to a 1:1 Langmuir model in BIACORE™ T200 Evaluation software version 3.0 (GE Healthcare).

B1: GUCY2C-1608 (bispecific antibody)
chain 1: DIQLTQSPSSLSASVGDRVTITCRASESVDYYGSSLLQWYQQKPGKAPKLLIYAASKLASGVPSRFSGSGSGTDFTLTISSLQPEDFATYYCQQTRKAYTFGQGTKLEIKGGGSGGGGEVQLVESGGGLVQPGGSLRLSCAASGFTFSDYYMTWVRQAPGKGLEWVAFIRNQARGYTSDHNPSVKGRFTISRDNAKNSLYLQMNSLRAEDTAVYYCARDRPSYYVLDYWGQGTTVTVSSGCPPCPAPEAAGAPSVFLFPPKPKDTLMISRTPEVTCVVVDVSHEDPEVKFNWYVDGVEVHNAKTKPREEQYNSTYRVVSVLTVLHQDWLNGKEYKCKVSNKALPAPIEKTISKAKGQPREPQVCTLPPSREEMTKNQVSLWCLVKGFYPSDIAVEWESNGQPENNYKTTPPVLDSDGSFFLYSKLTVDKSRWQQGNVFSCSVMHEALHNHYTQKSLSLSPG
chain 2: DIQMTQSPSSLSASVGDRVTITCTSSQSLFNVRSQKNYLAWYQQKPGKAPKLLIYWASTRESGVPSRFSGSGSGTDFTLTISSLQPEDFATYYCKQSYDLFTFGGGTKVEIKGGGGSGGGGEVQLVESGGGLVQPGGSLRLSCAASGFTFSSYWMHWVRQAPGKGLEWIGEIKPSNELTNVHEKFKDRFTISVDKAKNSAYLQMNSLRAEDTAVYYCTRTITTTEGYWFFDVWGQGTLVTVSSGCPPCPAPEAAGAPSVFLFPPKPKDTLMISRTPEVTCVVVDVSHEDPEVKFNWYVDGVEVHNAKTKPREEQYNSTYRVVSVLTVLHQDWLNGKEYKCKVSNKALPAPIEKTISKAKGQPREPQVYTLPPCREEMTKNQVSLSCAVKGFYPSDIAVEWESNGQPENNYKTTPPVLDSDGSFFLVSKLTVDKSRWQQGNVFSCSVMHEALHNHYTQKSLSLSPG
notes: also called GUCY2c CD3 bispecific
With B1 the Kd [1] was 24.1 nM, the koff [1] was 0.00916 s⁻¹ and the kon [1] was 381000 M⁻¹ s⁻¹. The Kd [2] was 3.01 nM, the koff [2] was 0.000417 s⁻¹ and the kon [2] was 138000 M⁻¹ s⁻¹.

Reference: US20230340151A1 (Pfizer, published 2023)
